B1: 14-3-3 protein sigma (Homo sapiens), P31947 (parent)
chain: MERASLIQKAKLAEQAERYEDMAAFMKGAVEKGEELSCEERNLLSVAYKNVVGGQRAAWRVLSSIEQKSNEEGSEEKGPEVREYREKVETELQGVCDTVLGLLDSHLIKEAGDAESRVFYLKMKGDYYRYLAEVATGDDKKRIIDSARSAYQEAMDISKKEMPPTNPIRLGLALNFSVFHYEIANSPEEAISLAKTTFDEAMADLHTLSEDSYKDSTLIMQLLRDNLTLWTADNAGEEGGEAPQEPQS
partner: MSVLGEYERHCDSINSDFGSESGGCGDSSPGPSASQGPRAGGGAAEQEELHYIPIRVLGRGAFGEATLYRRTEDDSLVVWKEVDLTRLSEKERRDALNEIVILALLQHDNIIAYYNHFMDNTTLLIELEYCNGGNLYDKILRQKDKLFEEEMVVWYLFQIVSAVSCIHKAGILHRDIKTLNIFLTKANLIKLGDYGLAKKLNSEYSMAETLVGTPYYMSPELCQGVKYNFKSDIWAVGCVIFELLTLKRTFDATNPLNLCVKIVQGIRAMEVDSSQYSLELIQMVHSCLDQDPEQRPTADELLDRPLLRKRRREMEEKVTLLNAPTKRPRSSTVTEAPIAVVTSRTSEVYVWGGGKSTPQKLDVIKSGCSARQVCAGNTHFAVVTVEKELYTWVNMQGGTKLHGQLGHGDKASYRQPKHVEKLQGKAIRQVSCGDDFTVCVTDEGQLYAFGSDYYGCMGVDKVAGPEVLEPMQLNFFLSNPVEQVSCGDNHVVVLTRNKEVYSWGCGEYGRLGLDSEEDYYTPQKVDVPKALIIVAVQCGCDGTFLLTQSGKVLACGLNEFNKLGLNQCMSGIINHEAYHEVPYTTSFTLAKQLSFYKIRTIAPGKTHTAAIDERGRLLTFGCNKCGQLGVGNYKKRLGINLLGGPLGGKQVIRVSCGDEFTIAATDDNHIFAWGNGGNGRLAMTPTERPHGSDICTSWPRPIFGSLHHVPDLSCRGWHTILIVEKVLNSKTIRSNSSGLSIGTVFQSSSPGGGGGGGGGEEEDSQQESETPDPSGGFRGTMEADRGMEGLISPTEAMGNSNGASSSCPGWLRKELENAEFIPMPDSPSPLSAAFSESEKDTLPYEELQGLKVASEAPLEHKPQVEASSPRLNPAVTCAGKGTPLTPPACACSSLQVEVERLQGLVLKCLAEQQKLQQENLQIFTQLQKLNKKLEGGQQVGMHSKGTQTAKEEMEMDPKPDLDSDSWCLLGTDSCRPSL
B2: 14-3-3 protein sigma (Homo sapiens), P31947 (parent)
chain: B1 chain
partner: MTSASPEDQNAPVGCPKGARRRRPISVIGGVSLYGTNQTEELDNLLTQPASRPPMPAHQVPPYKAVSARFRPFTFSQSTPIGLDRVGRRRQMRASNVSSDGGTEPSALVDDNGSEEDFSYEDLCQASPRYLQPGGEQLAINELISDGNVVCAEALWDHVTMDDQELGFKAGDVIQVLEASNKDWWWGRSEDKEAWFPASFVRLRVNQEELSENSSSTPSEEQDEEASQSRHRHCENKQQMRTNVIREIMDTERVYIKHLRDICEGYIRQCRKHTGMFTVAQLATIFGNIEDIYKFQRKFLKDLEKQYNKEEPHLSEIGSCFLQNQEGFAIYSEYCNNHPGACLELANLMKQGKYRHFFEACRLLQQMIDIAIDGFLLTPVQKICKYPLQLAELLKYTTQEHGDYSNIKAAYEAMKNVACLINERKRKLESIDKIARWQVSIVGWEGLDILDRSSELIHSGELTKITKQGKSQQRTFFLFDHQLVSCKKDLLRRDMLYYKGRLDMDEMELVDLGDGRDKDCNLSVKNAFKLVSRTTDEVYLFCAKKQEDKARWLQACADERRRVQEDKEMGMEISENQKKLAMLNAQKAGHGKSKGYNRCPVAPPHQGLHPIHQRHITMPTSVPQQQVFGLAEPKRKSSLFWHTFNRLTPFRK
B3: 14-3-3 protein sigma (Homo sapiens), P31947 (parent)
chain: B1 chain
partner: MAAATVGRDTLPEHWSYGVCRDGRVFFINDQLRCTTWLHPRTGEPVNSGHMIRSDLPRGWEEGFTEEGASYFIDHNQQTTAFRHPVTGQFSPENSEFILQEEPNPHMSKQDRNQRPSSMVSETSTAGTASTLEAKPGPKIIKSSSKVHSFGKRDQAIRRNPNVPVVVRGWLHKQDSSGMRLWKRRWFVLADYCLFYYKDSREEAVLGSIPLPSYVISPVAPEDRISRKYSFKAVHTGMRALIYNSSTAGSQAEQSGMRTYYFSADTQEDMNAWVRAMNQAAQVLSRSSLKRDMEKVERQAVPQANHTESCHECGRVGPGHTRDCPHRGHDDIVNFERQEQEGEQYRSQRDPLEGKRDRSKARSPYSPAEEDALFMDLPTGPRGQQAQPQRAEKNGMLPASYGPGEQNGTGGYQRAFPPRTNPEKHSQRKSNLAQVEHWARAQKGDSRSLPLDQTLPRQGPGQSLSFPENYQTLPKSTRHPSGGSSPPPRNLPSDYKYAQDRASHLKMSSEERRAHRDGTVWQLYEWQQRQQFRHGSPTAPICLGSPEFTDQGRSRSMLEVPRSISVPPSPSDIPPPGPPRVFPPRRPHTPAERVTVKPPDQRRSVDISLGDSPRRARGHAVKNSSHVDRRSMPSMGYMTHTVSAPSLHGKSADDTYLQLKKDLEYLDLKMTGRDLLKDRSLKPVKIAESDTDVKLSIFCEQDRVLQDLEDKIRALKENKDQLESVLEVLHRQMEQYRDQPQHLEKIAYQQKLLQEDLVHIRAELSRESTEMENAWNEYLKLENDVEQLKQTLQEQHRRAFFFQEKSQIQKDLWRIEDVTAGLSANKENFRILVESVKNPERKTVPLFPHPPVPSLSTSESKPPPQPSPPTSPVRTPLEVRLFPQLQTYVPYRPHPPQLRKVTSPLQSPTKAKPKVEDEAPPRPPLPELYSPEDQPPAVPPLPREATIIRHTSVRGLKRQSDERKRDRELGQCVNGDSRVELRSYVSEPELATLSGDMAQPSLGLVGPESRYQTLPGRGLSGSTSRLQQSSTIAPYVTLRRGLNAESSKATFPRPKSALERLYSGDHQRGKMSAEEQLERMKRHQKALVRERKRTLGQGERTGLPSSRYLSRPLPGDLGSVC
B4: 14-3-3 protein sigma (Homo sapiens), P31947 (parent)
chain: B1 chain
partner: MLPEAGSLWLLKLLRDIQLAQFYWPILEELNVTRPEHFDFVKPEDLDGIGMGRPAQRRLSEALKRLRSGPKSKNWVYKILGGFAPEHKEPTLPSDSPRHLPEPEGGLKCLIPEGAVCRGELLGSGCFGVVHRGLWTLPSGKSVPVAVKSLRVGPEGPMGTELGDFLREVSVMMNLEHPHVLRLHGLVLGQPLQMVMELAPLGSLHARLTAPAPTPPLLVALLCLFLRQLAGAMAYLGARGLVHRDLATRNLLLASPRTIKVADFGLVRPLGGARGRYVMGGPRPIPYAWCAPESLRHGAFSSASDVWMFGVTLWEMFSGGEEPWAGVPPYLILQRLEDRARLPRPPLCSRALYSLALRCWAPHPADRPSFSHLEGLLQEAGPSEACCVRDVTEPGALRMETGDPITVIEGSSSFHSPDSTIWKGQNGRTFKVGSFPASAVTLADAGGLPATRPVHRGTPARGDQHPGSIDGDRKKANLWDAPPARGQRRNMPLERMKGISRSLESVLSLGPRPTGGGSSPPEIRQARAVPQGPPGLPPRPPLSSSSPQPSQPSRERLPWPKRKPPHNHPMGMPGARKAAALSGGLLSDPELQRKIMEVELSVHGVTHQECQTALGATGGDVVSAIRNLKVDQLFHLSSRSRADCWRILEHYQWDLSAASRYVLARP
B5: 14-3-3 protein sigma (Homo sapiens), P31947 (parent)
chain: B1 chain
partner: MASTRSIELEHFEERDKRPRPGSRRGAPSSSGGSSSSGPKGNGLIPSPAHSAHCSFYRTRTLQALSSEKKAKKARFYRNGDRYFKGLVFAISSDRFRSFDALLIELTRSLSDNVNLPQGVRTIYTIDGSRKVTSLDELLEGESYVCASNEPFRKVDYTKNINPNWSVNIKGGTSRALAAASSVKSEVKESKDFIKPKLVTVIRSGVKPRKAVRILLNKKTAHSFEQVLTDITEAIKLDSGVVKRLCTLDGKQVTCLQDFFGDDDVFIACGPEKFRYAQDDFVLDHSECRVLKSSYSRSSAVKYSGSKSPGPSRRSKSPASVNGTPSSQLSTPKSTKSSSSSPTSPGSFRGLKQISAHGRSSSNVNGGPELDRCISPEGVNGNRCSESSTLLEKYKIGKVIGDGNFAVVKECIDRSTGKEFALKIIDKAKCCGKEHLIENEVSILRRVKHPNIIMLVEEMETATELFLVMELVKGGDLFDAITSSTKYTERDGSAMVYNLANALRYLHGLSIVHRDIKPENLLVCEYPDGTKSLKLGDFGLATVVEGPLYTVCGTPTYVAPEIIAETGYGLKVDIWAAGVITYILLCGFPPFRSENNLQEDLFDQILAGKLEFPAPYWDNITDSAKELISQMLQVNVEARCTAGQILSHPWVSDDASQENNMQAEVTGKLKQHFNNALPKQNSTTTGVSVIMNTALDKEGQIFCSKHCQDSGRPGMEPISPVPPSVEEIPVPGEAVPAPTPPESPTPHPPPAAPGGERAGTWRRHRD

Variants of B1 are the subject of the first experiment. The conditions noted are these: with nek9_human NEK9, Q8TD19.
K49E;R56E;V178D: the “effect of a mutation on the interaction” value is on record as “decreasing interaction strength”.

In another experiment the parent is B2. The conditions noted are these: with spt13_human SPATA13, Q96N96.
With K49E;R56E;V178D, the “effect of a mutation on the interaction” value is “decreasing interaction strength”.

In another experiment the parent is B3. The conditions noted are these: with pkha7_human PLEKHA7, Q6IQ23.
With K49E;R56E;V178D, the “effect of a mutation on the interaction” value is “decreasing interaction strength”.

A further experiment covers variants of B4. The conditions noted are these: with tnk1_human TNK1, Q13470.
With K49E;R56E;V178D, the “effect of a mutation on the interaction” value is “decreasing interaction strength”.

Another experiment covers variants of B5. The conditions noted are these: with dclk2_human DCLK2, Q8N568.
In the case of K49E;R56E;V178D, the “effect of a mutation on the interaction” value is listed as “decreasing interaction strength”.

Values taken from IntAct's records for PubMed 36931259.
